# Like-named read-outs stand apart in the source and are kept apart here.
# T1: human TIGIT expressed on CHO-K1 cells (human, UniProt Q495A1 22-244)
# T1 construct: whole, on cells; also called human TIGIT-CHO-K1 cells; human TIGIT over-expressing cell line
# T1 sequence (looked up): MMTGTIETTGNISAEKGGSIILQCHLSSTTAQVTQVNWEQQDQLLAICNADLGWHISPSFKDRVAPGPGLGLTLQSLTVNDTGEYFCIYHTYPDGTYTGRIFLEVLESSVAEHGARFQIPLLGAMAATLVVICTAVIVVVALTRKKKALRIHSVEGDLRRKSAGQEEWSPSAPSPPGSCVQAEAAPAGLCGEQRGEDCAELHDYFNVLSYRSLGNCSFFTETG
# T2: His-tagged human TIGIT (human, UniProt Q495A1 22-141)
# T2 construct: SPR analyte; also called human TIGIT protein; not shown: His tag
# T2 sequence: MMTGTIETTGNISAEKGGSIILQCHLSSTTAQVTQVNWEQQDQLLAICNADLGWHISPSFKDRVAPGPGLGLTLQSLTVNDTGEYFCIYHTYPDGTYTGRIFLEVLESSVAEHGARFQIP
# T3: TIGIT on TIGIT-over expressing NFAT-Luc/Jurkat effector cells (GenScript reporter cell line) (UniProt Q495A1 22-244, limits assumed)
# T3 sequence (looked up): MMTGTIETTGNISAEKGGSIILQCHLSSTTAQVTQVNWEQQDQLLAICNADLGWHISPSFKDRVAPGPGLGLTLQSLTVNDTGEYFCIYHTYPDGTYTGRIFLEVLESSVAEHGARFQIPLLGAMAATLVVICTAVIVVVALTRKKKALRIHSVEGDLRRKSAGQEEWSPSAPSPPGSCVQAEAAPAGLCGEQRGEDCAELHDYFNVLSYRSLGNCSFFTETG
# How the values were obtained:
# [1] = target: T1, human TIGIT expressed on CHO-K1 cells; experiment: flow cytometry competition: biotinylated CD155-Fc on human TIGIT-CHO-K1 cells
# [2] = target: T2, His-tagged human TIGIT; experiment: SPR (Biacore T200), antibody captured, His-tagged TIGIT analyte
# [3] = target: T4, His-tagged cynomolgus TIGIT (cynomolgus, UniProt A0A7N9I9V4 89-209); experiment: as above
# T4 construct: SPR analyte; also called cynomolgus TIGIT protein; not shown: His tag
# T4 sequence (A0A7N9I9V4 entry or part of it): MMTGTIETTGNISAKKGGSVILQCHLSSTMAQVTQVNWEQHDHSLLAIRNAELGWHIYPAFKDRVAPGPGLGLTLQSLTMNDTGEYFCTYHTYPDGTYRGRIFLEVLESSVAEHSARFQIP
# [4] = target: T1, human TIGIT expressed on CHO-K1 cells; experiment: flow cytometry competition: biotinylated CD155-Fc on human TIGIT-CHO-K1 cells; remark: listed apart in the source
# [5] = target: T2, His-tagged human TIGIT; experiment: SPR (Biacore T200), antibody captured, His-tagged TIGIT analyte; remark: listed apart in the source
# [6] = target: T4, His-tagged cynomolgus TIGIT; experiment: as above; remark: listed apart in the source
# [7] = target: T3, TIGIT on TIGIT-over expressing …; experiment: cell-based or functional assay
# [8] = target: T3, TIGIT on TIGIT-over expressing …; experiment: cell-based or functional assay; remark: listed apart in the source
# [9] = target: T5, cynomolgus TIGIT expressed on CHO-K1 cells (cynomolgus, UniProt A0A7N9I9V4 89-312); experiment: flow cytometry on CHO-K1 cells expressing cynomolgus TIGIT
# T5 construct: whole, on cells; also called cynomolgus TIGIT over-expressing cell line
# T5 sequence (A0A7N9I9V4 entry or part of it): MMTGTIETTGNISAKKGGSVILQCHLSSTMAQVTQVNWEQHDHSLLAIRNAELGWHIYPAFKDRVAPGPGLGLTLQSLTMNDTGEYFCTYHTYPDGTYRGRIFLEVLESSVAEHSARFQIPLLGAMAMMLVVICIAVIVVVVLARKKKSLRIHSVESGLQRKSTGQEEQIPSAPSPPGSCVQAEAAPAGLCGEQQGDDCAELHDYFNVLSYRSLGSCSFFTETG
# [10] = target: T1, human TIGIT expressed on CHO-K1 cells; experiment: flow cytometry on CHO-K1 cells expressing human TIGIT
# [11] = target: T1, human TIGIT expressed on CHO-K1 cells; experiment: as above; remark: listed apart in the source
# [12] = target: T2, His-tagged human TIGIT; experiment: SPR experiment 2, IgG from HEK293 supernatant captured
Binder,IC50 [1] [nM],Kd [2] [nM],koff [2] [s⁻¹],kon [2] [M⁻¹ s⁻¹],Kd [3] [nM],IC50 [4] [nM],Kd [5] [nM],koff [5] [s⁻¹],kon [5] [M⁻¹ s⁻¹],Kd [6] [nM],koff [6] [s⁻¹],kon [6] [M⁻¹ s⁻¹],Bottom (RLU) [7] [RLU],EC50 [7] [nM],Top (RLU) [7] [RLU],EC50 [9] [nM],EC50 [10] [nM],Kd [12] [nM],koff [12] [s⁻¹],kon [12] [M⁻¹ s⁻¹],other results
"huTIGIT-6-1 (antibody, human IgG1, kappa, V domains shown, Humanized IgG; also called 6VH6.M4 + 6VL1.M1) VH: QVQLVQSGAEVKKPGASVKVSCKASGYTITENTMHWVRQAPGQRLEWIGGINPNQGGTSYSQKFQGRATLTVDTSASTAYMELSSLRSEDTAVYYCTRSSYYRYDLDYWGQGTTVTVSS VL: DIQMTQSPSSLSASVGDRVTITCQASQDIKTALAWYQQKPGKAPKLLIYSASYRYTGVPSRFSGSGSGTDFTFTISSLQPEDIATYYCHQHYTTPWTFGGGTKLEIKR",–,–,–,–,–,1.04,0.21,5.6e-05,260000,75,0.0044,59000,51200,9.1,131000,4.69,1.16,0.34,9.8e-05,280000,–
"huTIGIT-6-3 (antibody, human IgG1, kappa, V domains shown, Humanized IgG; also called 6VH6.M6 + 6VL1.M1) VH: QVQLVQSGAEVKKPGASVKVSCKASGYTFTENAMHWVRQAPGQRLEWIGGINPNQGGTSYSQKFQGRATLTVDTSASTAYMELSSLRSEDTAVYYCTRSSYYRYDLDYWGQGTTVTVSS VL: DIQMTQSPSSLSASVGDRVTITCQASQDIKTALAWYQQKPGKAPKLLIYSASYRYTGVPSRFSGSGSGTDFTFTISSLQPEDIATYYCHQHYTTPWTFGGGTKLEIKR",–,–,–,–,–,1.1,0.29,9.8e-05,340000,130,0.0078,61000,49400,11.1,135000,8.2,1.11,0.64,0.00017,270000,–
"TIGIT-100 chimeric antibody (antibody, human IgG1, kappa, V domains shown, Full-length chimeric IgG1 kappa) VH: QVQLQQPGPELVKPGASVKISCKASGYSFTDYNMNWVKQSNGKSLEWIGVINPNSGTDNYNQKFKGKATLTVDQSSSTAYMQLNSLTSEDSAVYFCARGVYFGNYFDSWGQGTTLTVSS VL: DIVMTQSPASLSASVGETVTITCRASENIYSSLAWYQQKQGKSPQLLVFNAKTLTEGVPSRFSGSGSGTQFSLKINSLQPEDFGSYYCQHHYGAPWTFGGGTKLEIKR",0.82,6.6,0.014,2.2e+06,29,–,–,–,–,–,–,–,–,–,–,–,–,–,–,–,koff [3]: 0.012 s⁻¹; kon [3]: 420000 M⁻¹ s⁻¹; Bottom (RLU) [8]: 4520 RLU; EC50 [8]: > 100 nM; Top (RLU) [8]: 11700 RLU; EC50 [11]: 0.55 nM

# Second part, led by results:
IC50 [1] [nM],Kd [2] [nM],koff [2] [s⁻¹],kon [2] [M⁻¹ s⁻¹],Kd [3] [nM],IC50 [4] [nM],Kd [5] [nM],koff [5] [s⁻¹],kon [5] [M⁻¹ s⁻¹],Kd [6] [nM],koff [6] [s⁻¹],kon [6] [M⁻¹ s⁻¹],Bottom (RLU) [7] [RLU],EC50 [7] [nM],Top (RLU) [7] [RLU],EC50 [9] [nM],EC50 [10] [nM],Kd [12] [nM],koff [12] [s⁻¹],kon [12] [M⁻¹ s⁻¹],Binder,other results
0.81,0.11,0.00013,1.2e+06,280,0.62,0.051,5.1e-05,1e+06,470,0.063,130000,52900,11.1,163000,43,0.65,–,–,–,"Hu1217-2-2 (anti-TIGIT positive control antibody) (antibody, V domains shown) VH: EVQLVESGGGLVQPGGSLRLSCAASGFTFSDYYMYWVRQAPGKGLEWVAYITKGGGSTYYPDSVKGRFTISRDNAKNTLYLQMNSLRAEDTAVYYCARQTNYDFTMDYWGQGTLVTVSS VL: EIVMTQSPATLSVSPGERATLSCKASQDVGTSVAWYQQKPGQAPRLLIYWASARHTGIPARFSGSGSGTEFTLTISSLQSEDFAVYYCQQYSSYPLTFGGGTKVEIK",koff [3]: 0.044 s⁻¹; kon [3]: 160000 M⁻¹ s⁻¹; Bottom (RLU) [8]: 10500 RLU; EC50 [8]: 15.6 nM; Top (RLU) [8]: 51700 RLU; EC50 [11]: 0.46 nM
–,–,–,–,–,0.975,0.27,9.6e-05,350000,110,0.0074,69000,49800,9.03,129000,4.98,0.745,0.71,0.00022,300000,"huTIGIT-6-2 (antibody, human IgG1, kappa, V domains shown, Humanized IgG; also called 6VH6.M5 + 6VL1.M1) VH: QVQLVQSGAEVKKPGASVKVSCKASGYTITENTMHWVRQAPGQRLEWIGGINPNNAGTSYSQKFQGRATLTVDTSASTAYMELSSLRSEDTAVYYCTRSSYYRYDLDYWGQGTTVTVSS VL: DIQMTQSPSSLSASVGDRVTITCQASQDIKTALAWYQQKPGKAPKLLIYSASYRYTGVPSRFSGSGSGTDFTFTISSLQPEDIATYYCHQHYTTPWTFGGGTKLEIKR",–
